Values of other authors in paper PMC5548488.

Target: CAST/ELKS (UniProt Q8K3M6)
Sequence of UniProt Q8K3M6 (Q8K3M6 whole entry): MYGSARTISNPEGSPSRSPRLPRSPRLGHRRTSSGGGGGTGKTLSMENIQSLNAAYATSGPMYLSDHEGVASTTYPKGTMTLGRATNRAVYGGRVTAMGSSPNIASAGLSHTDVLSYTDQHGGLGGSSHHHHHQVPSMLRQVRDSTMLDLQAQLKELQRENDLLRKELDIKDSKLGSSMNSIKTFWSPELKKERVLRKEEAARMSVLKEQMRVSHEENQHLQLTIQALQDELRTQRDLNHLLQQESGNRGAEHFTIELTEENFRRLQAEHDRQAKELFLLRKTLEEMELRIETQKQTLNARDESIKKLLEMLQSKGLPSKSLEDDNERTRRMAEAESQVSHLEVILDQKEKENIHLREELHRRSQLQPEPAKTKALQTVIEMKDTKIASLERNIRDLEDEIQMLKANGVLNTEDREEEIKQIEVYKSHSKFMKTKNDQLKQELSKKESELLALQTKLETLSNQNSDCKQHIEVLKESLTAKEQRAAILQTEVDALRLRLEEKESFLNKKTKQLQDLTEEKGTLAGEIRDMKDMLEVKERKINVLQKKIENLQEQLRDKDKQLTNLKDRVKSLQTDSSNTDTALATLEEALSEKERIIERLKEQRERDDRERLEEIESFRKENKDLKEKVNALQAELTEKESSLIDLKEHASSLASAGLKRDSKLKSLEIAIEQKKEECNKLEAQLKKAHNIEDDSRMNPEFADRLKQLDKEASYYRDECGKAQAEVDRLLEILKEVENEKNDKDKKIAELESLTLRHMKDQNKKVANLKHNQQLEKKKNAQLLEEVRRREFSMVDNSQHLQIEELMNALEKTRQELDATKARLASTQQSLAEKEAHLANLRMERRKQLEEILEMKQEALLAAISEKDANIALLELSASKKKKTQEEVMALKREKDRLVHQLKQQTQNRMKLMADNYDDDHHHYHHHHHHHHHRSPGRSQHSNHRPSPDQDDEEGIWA

Kd: 200 nM
Substance: RIM PDZ (from UniProt Q86UR5)
